For four molecules, IC50 results are on record in patent US20160272683A1 (Novo Nordisk, published 2016).

The labels stand for the following.
T1: human amylin receptor (human calcitonin receptor + human RAMP3) (human) (UniProt P30988)
T1 sequence (looked up) 1: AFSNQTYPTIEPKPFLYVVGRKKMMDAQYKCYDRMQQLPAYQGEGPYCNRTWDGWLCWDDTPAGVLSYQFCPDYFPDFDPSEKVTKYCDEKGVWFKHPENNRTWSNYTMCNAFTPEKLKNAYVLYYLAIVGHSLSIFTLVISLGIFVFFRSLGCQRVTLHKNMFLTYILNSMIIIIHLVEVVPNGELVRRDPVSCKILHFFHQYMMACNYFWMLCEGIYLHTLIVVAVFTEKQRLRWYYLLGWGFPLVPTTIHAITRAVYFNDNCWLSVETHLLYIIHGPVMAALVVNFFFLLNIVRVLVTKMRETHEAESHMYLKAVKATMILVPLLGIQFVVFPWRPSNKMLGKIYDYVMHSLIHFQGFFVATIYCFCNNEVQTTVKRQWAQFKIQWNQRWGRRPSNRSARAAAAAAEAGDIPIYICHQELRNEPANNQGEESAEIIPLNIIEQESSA
T1 sequence (looked up) 2: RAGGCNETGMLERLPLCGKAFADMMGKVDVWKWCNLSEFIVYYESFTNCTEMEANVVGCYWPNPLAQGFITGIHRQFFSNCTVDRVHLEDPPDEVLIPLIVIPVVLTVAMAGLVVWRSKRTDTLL

B1: [N-terminal(C20 diacid-gGlu), des1, 23Y, 30S, 31G]mimylin (peptide)
peptide: {C20 diacid-γGlu}-ASELSTAALGRLSAELHELATYPRTETGSGSP-NH2
SMILES: CC(C)C[C@H](NC(=O)[C@H](C)NC(=O)[C@H](C)NC(=O)[C@@H](NC(=O)[C@H](CO)NC(=O)[C@H](CC(C)C)NC(=O)[C@H](CCC(=O)O)NC(=O)[C@H](CO)NC(=O)[C@H](C)NC(=O)CC[C@H](NC(=O)CCCCCCCCCCCCCCCCCCC(=O)O)C(=O)O)[C@@H](C)O)C(=O)NCC(=O)N[C@@H](CCCNC(=N)N)C(=O)N[C@@H](CC(C)C)C(=O)N[C@@H](CO)C(=O)N[C@@H](C)C(=O)N[C@@H](CCC(=O)O)C(=O)N[C@@H](CC(C)C)C(=O)N[C@@H](Cc1c[nH]cn1)C(=O)N[C@@H](CCC(=O)O)C(=O)N[C@@H](CC(C)C)C(=O)N[C@@H](C)C(=O)N[C@H](C(=O)N[C@@H](Cc1ccc(O)cc1)C(=O)N1CCC[C@H]1C(=O)N[C@@H](CCCNC(=N)N)C(=O)N[C@H](C(=O)N[C@@H](CCC(=O)O)C(=O)N[C@H](C(=O)NCC(=O)N[C@@H](CO)C(=O)NCC(=O)N[C@@H](CO)C(=O)N1CCC[C@H]1C(N)=O)[C@@H](C)O)[C@@H](C)O)[C@@H](C)O
B2: [N-terminal(C20 diacid-gGlu), 1A, 23Y, 30S, 31G]mimylin (peptide)
peptide: {C20 diacid-γGlu}-AASELSTAALGRLSAELHELATYPRTETGSGSP-NH2
SMILES: CC(C)C[C@H](NC(=O)[C@H](C)NC(=O)[C@H](C)NC(=O)[C@@H](NC(=O)[C@H](CO)NC(=O)[C@H](CC(C)C)NC(=O)[C@H](CCC(=O)O)NC(=O)[C@H](CO)NC(=O)[C@H](C)NC(=O)[C@H](C)NC(=O)CC[C@H](NC(=O)CCCCCCCCCCCCCCCCCCC(=O)O)C(=O)O)[C@@H](C)O)C(=O)NCC(=O)N[C@@H](CCCNC(=N)N)C(=O)N[C@@H](CC(C)C)C(=O)N[C@@H](CO)C(=O)N[C@@H](C)C(=O)N[C@@H](CCC(=O)O)C(=O)N[C@@H](CC(C)C)C(=O)N[C@@H](Cc1c[nH]cn1)C(=O)N[C@@H](CCC(=O)O)C(=O)N[C@@H](CC(C)C)C(=O)N[C@@H](C)C(=O)N[C@H](C(=O)N[C@@H](Cc1ccc(O)cc1)C(=O)N1CCC[C@H]1C(=O)N[C@@H](CCCNC(=N)N)C(=O)N[C@H](C(=O)N[C@@H](CCC(=O)O)C(=O)N[C@H](C(=O)NCC(=O)N[C@@H](CO)C(=O)NCC(=O)N[C@@H](CO)C(=O)N1CCC[C@H]1C(N)=O)[C@@H](C)O)[C@@H](C)O)[C@@H](C)O
B3: [N-terminal(C20 diacid-gGlu), des1, 30S, 31G, 33H]mimylin (peptide)
peptide: {C20 diacid-γGlu}-ASELSTAALGRLSAELHELATLPRTETGSGSH-NH2
SMILES: CC(C)C[C@H](NC(=O)[C@H](C)NC(=O)[C@H](C)NC(=O)[C@@H](NC(=O)[C@H](CO)NC(=O)[C@H](CC(C)C)NC(=O)[C@H](CCC(=O)O)NC(=O)[C@H](CO)NC(=O)[C@H](C)NC(=O)CC[C@H](NC(=O)CCCCCCCCCCCCCCCCCCC(=O)O)C(=O)O)[C@@H](C)O)C(=O)NCC(=O)N[C@@H](CCCNC(=N)N)C(=O)N[C@@H](CC(C)C)C(=O)N[C@@H](CO)C(=O)N[C@@H](C)C(=O)N[C@@H](CCC(=O)O)C(=O)N[C@@H](CC(C)C)C(=O)N[C@@H](Cc1c[nH]cn1)C(=O)N[C@@H](CCC(=O)O)C(=O)N[C@@H](CC(C)C)C(=O)N[C@@H](C)C(=O)N[C@H](C(=O)N[C@@H](CC(C)C)C(=O)N1CCC[C@H]1C(=O)N[C@@H](CCCNC(=N)N)C(=O)N[C@H](C(=O)N[C@@H](CCC(=O)O)C(=O)N[C@H](C(=O)NCC(=O)N[C@@H](CO)C(=O)NCC(=O)N[C@@H](CO)C(=O)N[C@@H](Cc1c[nH]cn1)C(N)=O)[C@@H](C)O)[C@@H](C)O)[C@@H](C)O

Numbered stars: 1 amine (or outer) side, 2 acyl side, 3 side chain; on linkers, the order of the positions; unused ones are H or OH. * marks the point of attachment. C20 diacid = O=C(O)CCCCCCCCCCCCCCCCCCC(=O)*; γGlu = O=C(O)[C@H](CCC(=O)[*:2])N[*:1]

One assay addresses rat amylin receptor (rat calcitonin receptor with rat RAMP 3) (rat) (UniProt P32214). The assay can be described thus: SPA competition vs 125I-rat amylin, membranes with rat CTR + rat RAMP3 (Assay VI).
For orientation: IC50 means the concentration needed to halve the response being measured. For {C20 diacid-γGlu}-ASELSTAALGHLSAELHELATLPRTETGSGSP-NH2 [[N-terminal(C20 diacid-gGlu), des1, 12H, 30S, 31G]mimylin], the IC50 came to 1.53 nM.
Consider B1, for which the IC50 was 3.99 nM.
Take B2: the IC50 is 0.025 nM.
Take B3: the IC50 worked out at 0.046 nM.

The next assay deals with rat calcitonin receptor (rat) (UniProt P32214). The experiment in a line: SPA competition vs 125I-calcitonin, membranes with rat CTR (Assay VIII).
Consider {C20 diacid-γGlu}-ASELSTAALGHLSAELHELATLPRTETGSGSP-NH2 [[N-terminal(C20 diacid-gGlu), des1, 12H, 30S, 31G]mimylin], for which the 50% inhibitory concentration (IC50) was 0.085 nM.
Take B1: the IC50 stood at 0.202 nM.
Turning to B2, the IC50 was 0.044 nM.
As to B3, the IC50 is 0.02 nM.

Another assay has as its target T1, human amylin receptor (human calcitonin receptor + human RAMP3) (human). The experiment in a line: whole-cell competition vs 125I-rat amylin (Assay Va).
For the molecule {C20 diacid-γGlu}-ASELSTAALGHLSAELHELATLPRTETGSGSP-NH2 [[N-terminal(C20 diacid-gGlu), des1, 12H, 30S, 31G]mimylin], the IC50 was found to be 0.697 nM.
As for B1, the IC50 came to 2.61 nM.
Consider B2, for which the IC50 was 1.23 nM.
For B3, the IC50 was 1.07 nM.
